Results taken from US20040071656A1, “Modulation of heat-shock-protein-based immunotherapies” (priority 2001, published 2004).

Columns and labels:
human CD40 = biological target: T1, human CD40 (Homo sapiens, UniProt P25942); assay: Binding to Cos-7 cells transiently transfected with human CD40 cDNA, fluorescence microscopy; type: cell-based; conditions: 250 nM biotinylated protein, 30 min at 0° C.
T1 construct: CD40 full-length cDNA was cloned by PCR; expressed in transfected cells
Method: Cell culture and fluorescence microscopy. The murine macrophage cell line ANA1 was kindly provided by H. Wagner (Munich, Germany). ANA-1 cells were cultured in VLE-RPMI 1640 (Biochrom), supplemented with 10% FCS, 2 mM L-glutamine and antibiotics. For fluorescence microscopy, ANA1 cells were either stimulated with LPS (20 μg/ml, Sigma, Germany), or kept in an LPS-free medium (mock treatment) for 7 h. After stimulation, cells were harvested and incubated with 100 nM biotinylated Hsp70, biotinylated GST, or Hsp70/peptide C-biotin complex for 30 min at 0° C. in VLE-RPMI 1640. After incubation cells were processed for staining with streptavidin-TRITC (Sigma, Germany), fixed with paraformaldehyde and analyzed by fluorescence microscopy (Axiovert 35, Zeiss) as described (Sondermann et al., 2000). […] Twenty-four h post-transfection cells were incubated with 250 nM biotinylated Hsp70, biotinylated GST or Hsp70/peptide C-biotin complex for 30 min at 0° C. in DMEM, fixed, stained with streptavidin-TRITC (Sigma, Germany), and analyzed by fluorescence microscopy as described (Sondermann et al., 2000, idem). […] Stably transfected cell lines were analyzed by immunoblotting for CD40 expression using an anti-CD40 antibody (CSA180, Stressgen). […]
Mock-treated and LPS-stimulated ANA-1 cells were analyzed for their expression of CD40. […]

[1] = biological target: T2, exoplasmic domain of human CD40 (GST-CD40) (Homo sapiens, UniProt P25942); assay: GST-CD40 pull-down of endogenous heat shock proteins from Hela cell lysate; type: binding; conditions: 80 or 400 pmol GST-CD40, immunoblot
T2 construct: The cDNA for the exoplasmic domain of CD40 (amino acids 20-212); made in house; host or cells: E. coli, pGEX-2T
Method: Binding assays with GST-CD40. For binding of endogenous Hsp70 and Hsc70 from Hela cell lysate, Hela cells were lysed as described above and centrifuged at 100,000 g at 4° C. for 1 h. 20 μl bed volume of Glutathione Sepharose 4 Fast Flow (Amersham Pharmacia) per sample were preincubated with 80 pmol or 400 pmol of GST or GST-CD40 fusion protein in 50 μl binding buffer. Unbound protein was removed by washing three times with PBS. The beads were treated with 1% BSA/PBS to avoid non-specific binding, and than incubated with 150 μl of Hela cell lysate in the presence of 2 mM DTT for 20 min at 16° C. […] 10 μl of the eluates was subjected to SDS-PAGE and analyzed by immunoblotting using an anti-Hsc/Hsp70 antibody and an anti-Hsp90: antibody (SPA822 and SPA835, Stressgen). […]
Details for FIG. 3. […] Thereafter samples were affinity purified on glutathione-Sepharose as outlined in Experimental Procedures, subjected to SDS-PAGE and analyzed by immunoblotting with antibodies directed against Hsc70 and Hsp70 (upper lanes), and against Hsp90 (lower lanes). […] After affinity purification samples were analyzed by immunoblotting as described in A, using antibodies directed against the His6-tag. […] Protein bound to Hsp70 was analyzed by affinity purification on Ni-NTA-agarose and immunoblotting with antibodies directed against CD40.

T2 sequence (P25942 20-212): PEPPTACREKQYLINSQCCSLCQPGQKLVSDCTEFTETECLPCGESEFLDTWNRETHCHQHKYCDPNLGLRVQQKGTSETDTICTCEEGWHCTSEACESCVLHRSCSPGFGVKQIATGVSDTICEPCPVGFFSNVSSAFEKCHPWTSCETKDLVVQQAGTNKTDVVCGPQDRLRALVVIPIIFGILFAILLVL
T1 sequence (P25942 21-277): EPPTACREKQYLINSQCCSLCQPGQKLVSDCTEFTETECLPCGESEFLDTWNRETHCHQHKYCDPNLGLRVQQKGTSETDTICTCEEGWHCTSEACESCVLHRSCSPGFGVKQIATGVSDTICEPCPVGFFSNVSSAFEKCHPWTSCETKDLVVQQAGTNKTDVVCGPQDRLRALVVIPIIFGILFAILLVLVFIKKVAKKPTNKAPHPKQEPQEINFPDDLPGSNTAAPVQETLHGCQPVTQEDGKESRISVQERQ

Substance: Hsp70: Recombinant human heat shock protein 70, expressed and purified as His-tagged protein
- binding to CD40-transfected Cos-7 cells (human CD40): bound to the surface of transfected cells but not to untransfected cells
- binding to GST-CD40 from Hela-cell lysates [1]: bound to GST-CD40 in a concentration dependent manner
